No end group written: not given here.
Legend:
[1] = target: T1, GST-fused P4HA1 protein (whole region of P4HA1) (human, UniProt P13674 18-534); assay: HTRF competition: 60 ng MBP-synoviolin-His and 10 ng GST-P4HA1, XL665-labeled anti-His and Eu(K)-labeled anti-GST antibodies
T1 construct: Made in E. coli; also called GST-P4HA1; GST-fused P4HA1 protein beads; not shown: GST (glutathione S-transferase) fusion partner of vector pGEX 4T-1
Description: A standard reaction mixture comprising 60 ng MBP-synoviolin-His, 10 ng GST-P4HA1, 1 mM DTT, 1 mM EDTA, 50 mM NaCl, 0.1% BSA, 0.3% DMSO, and a test compound in 15 μL of 50 mM HEPES (pH 7.5) solution was prepared using a 384-well plate. The reaction was initiated by adding 5 μL of a 50 mM HEPES solution comprising GST-P4HA1. After a 30 minute reaction at room temperature, 5 μL of a 50 mM HEPES solution comprising an Eu(K)-labeled anti-GST antibody (20000 B counts, CIS bio international), a XL665-labeled anti-His antibody (0.025 μg, CIS bio international), and 1 M K was added. The mixture was left to stand overnight at room temperature, and the fluorescence was measured using RUBYstar™.

[2] = target: T2, GST protein (UniProt P08515 1-218 = GST); assay: GST pulldown, SDS-PAGE and autoradiography
T2 construct: Control in the pulldown; also called control GST protein
Description: A [³⁵S]-labeled Flag-P4HA1 fused protein was prepared using the TNT-coupled Translation System (Promega Corporation) and pcDNA3-Flag-P4HA1. The fused protein was added, together with GST-Syno dTM, GST-Syno RING and GST protein, to a binding buffer containing 20 mM HEPES (pH 7.9), 100 mM NaCl, 1 mM EDTA, 0.05% Tween, 5% glycerol, 1 mM DTT, 0.2 mM NaVO₄, 5 mM NaF, and 1 mM PMSF and reacted at 4° C. for 16 hours. The resulting reaction product was developed over SDS-PAGE and its radioactivity was detected with an image analyzer (BAS2000, Fujix). The binding of GST-Syno dTM and GST-Syno RING fusion protein with [³⁵S]-labeled pcDNA3-Flag-P4HA1 was observed. In contrast, no binding was found between the control GST protein and pcDNA3-Flag-P4HA1 (FIG. 2).

T2 sequence (P08515 whole entry): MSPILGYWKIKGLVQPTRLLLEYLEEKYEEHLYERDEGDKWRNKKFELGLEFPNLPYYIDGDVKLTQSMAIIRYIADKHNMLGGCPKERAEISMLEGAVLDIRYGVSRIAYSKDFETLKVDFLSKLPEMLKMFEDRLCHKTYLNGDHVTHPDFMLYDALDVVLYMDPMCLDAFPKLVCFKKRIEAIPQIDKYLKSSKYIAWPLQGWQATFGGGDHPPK

B1: partial peptide of the partially modified synoviolin (SEQ ID NO: 5) (peptide)
peptide: DNVCIICREEMVTGAKRLDCN
modifications: cysteine pairing not given here; also: partially modified, modification not given here
[1]
  IC50: 167 µg/mL

B2: [35S]-labeled Flag-P4HA1 fused protein (enzyme)
chain: HPGFFTSIGQMTDLIHTEKDLVTSLKDYIKAEEDKLEQIKKWAEKLDRLTSTATKDPEGFVGHPVNAFKLMKRLNTEWSELENLVLKDMSDGFISNLTIQRQYFPNDEDQVGAAKALLRLQDTYNLDTDTISKGNLPGVKHKSFLTAEDCFELGKVAYTEADYYHTELWMEQALRQLDEGEISTIDKVSVLDYLSYAVYQQGDLDKALLLTKKLLELDPEHQRANGNLKYFEYIMAKEKDVNKSASDDQSDQKTTPKKKGVAVDYLPERQKYEMLCRGEGIKMTPRRQKKLFCRYHDGNRNPKFILAPAKQEDEWDKPRIIRFHDIISDAEIEIVKDLAKPRLSRATVHDPETGKLTTAQYRVSKSAWLSGYENPVVSRINMRIQDLTGLDVSTAEELQVANYGVGGQYEPHFDFARKDEPDAFKELGTGNRIATWLFYMSDVSAGGATVFPEVGASVWPKKGTAVFWYNLFASGEGDYSTRHAACPVLVGNKWVSNKWLHERGQEFRRPCTLSELE
modifications: 35S label from in vitro translation (the FIG. 2 legend prints 32P)
notes: Made with the TNT-coupled Translation System from pcDNA3-Flag-P4HA1; also called pcDNA3-Flag-P4HA1; [32P]-labeled Flag-P4HA1 fused protein; not shown: Flag tag
[2]
  binding result: no binding

Reference: US20070134720A1 (published 2007)
